Measured values from patent publication US6887474.

Target: prostate specific membrane antigen (PSMA) (UniProt Q04609)
Test: flow cytometry on LnCAP prostate cancer cells

Chain of UniProt Q04609 (Q04609 whole entry): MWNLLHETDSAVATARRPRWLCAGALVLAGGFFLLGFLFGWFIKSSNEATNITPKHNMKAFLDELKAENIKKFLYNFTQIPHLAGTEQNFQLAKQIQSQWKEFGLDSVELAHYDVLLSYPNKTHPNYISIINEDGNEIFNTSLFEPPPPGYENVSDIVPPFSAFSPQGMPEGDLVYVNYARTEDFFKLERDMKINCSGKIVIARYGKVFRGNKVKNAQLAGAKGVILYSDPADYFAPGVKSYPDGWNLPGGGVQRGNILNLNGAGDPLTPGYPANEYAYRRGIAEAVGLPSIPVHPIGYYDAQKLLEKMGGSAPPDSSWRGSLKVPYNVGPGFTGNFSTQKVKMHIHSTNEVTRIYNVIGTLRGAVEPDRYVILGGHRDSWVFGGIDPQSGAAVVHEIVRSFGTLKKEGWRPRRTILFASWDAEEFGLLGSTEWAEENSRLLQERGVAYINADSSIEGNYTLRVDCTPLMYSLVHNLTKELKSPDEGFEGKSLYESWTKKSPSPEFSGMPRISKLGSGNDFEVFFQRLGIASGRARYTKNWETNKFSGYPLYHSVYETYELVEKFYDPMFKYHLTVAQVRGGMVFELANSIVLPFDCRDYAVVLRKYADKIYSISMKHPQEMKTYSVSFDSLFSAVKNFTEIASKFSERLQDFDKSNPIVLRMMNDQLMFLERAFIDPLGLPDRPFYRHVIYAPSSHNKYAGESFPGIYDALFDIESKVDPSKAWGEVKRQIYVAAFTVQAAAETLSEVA

flow cytometry on LnCAP (% positive): 58%
Substance: antibody 7E11 (ATCC #FB 10494) recognizing prostate specific membrane antigen
